Measured values reported in patent US20220317133A1 (NORDIC BIOSCIENCE A S, published 2022).

T1: truncated peptide KPGVISVMG
T1 peptide: KPGVISVMG

T2: elongated peptide KPGVISVMGTA
T2 peptide: KPGVISVMGTA

T3: KPGVISVMGT, last 10 amino acids of the type VI collagen α3 chain (selection / immunogenic peptide)
T3 construct: also called PRO-C6
T3 peptide: KPGVISVMGT

T4: CPTGPQNYSP, C-terminal neo-epitope sequence of the α1 chain PIIINP (free calibrator peptide)
T4 construct: also called PRO-C3
T4 peptide: CPTGPQNYSP


Key:
[1] = biological target: T1, truncated peptide KPGVISVMG; experiment: screening of hybridoma cell lines against peptides
Method: (§1) Mouse spleen cells were fused with SP2/0 myeloma fusion partner cells. The fusion cells were raised in 96-well plates and incubated in the CO2-incubator. Here standard limited dilution was used to promote monoclonal growth. Cell lines specific to the selection peptide and without cross-reactivity to either elongated peptide ([…] (SEQ ID No: 2), Chinese Peptide Company, China) or truncated peptide ([…] (SEQ ID No: 3), American Peptide Company, USA) were selected and sub-cloned. At last the antibodies were purified using an IgG column.

[2] = biological target: T2, elongated peptide KPGVISVMGTA; experiment: screening of hybridoma cell lines against peptides
Method: as §1

[3] = biological target: T3, KPGVISVMGT, last 10 amino acids of the …; experiment: screening of hybridoma cell lines against peptides
Method: as §1

[4] = biological target: T4, CPTGPQNYSP, C-terminal neo-epitope …; experiment: hybridoma screening, indirect ELISA on streptavidin-coated plates with the free peptide as calibrator
Method: A monoclonal antibody specific for Pro-C3 was developed as described in WO 2014/170312 (Nordic Bioscience, incorporated herein by reference) using sequence 145′-[…]-′153 (SEQ ID No: 14) of the α1 chain PIIINP as an immunogenic peptide. Briefly, generation of monoclonal antibodies was initiated by subcutaneous immunization of 4-5 week old Balb/C mice with 200 μl emulsified antigen and 50 μg PIIINP neo-epitope C-terminus sequence (OVA-CGG-[…] (SEQ ID No: 32)) using Freund's incomplete adjuvant. The immunizations were repeated every 2 weeks until stable serum titer levels were reached. The spleen cells were fused with SP2/0 myeloma cells to produce hybridoma, and cloned in culture dishes using the semi-medium method. The supernatants were screened for reactivity against calibrator peptide and native material in an indirect ELISA using streptavidin-coated plates. Biotin-CGG-[…] (SEQ ID No: 33) was used as screening peptide, while the free peptide […] (SEQ ID No: 14) was used as calibrator to test for further specificity of clones.

| Binder | binding result [1] | binding result [2] | binding result [3] | binding result [4] |
| --- | --- | --- | --- | --- |
| monoclonal antibody specific for Pro-C6 (monoclonal antibody 10A3) (antibody, mouse IgG1, kappa, V domains shown, Mouse IgG1 / kappa from a hybridoma; the antibodies were purified on an IgG column afterwards; also called PRO-C6 antibody) VH: EVQLQQSGPVMVKPGTSVKTSCKASGYTFTDFNMNWVKQSHGKSLEWIGAINPHNGATSYNQKFSGKATLTVDKSSSTAYMELNSLTSDDSAVYYCARWGNGKNSWGQGTTLTVSS VL: DVVMTQTPLSLPVNLGDQASISCRSSQRIVHSNGITFLEWYLQKPGQSPKLLIYRVSNRFSGVPDRFSGSGSGTDFTLKISRVEAEDLGLYYCFQGSHVPLTFGAGTRLELKR | no binding | no binding | binds |  |
| monoclonal antibody specific for Pro-C3 (monoclonal antibody NB61N-62) (antibody, V domains shown, Mouse IgG2A / kappa; also called PRO-C3 antibody) VH: EVQLQQSGPEVLKPGASVKMSCKASGYTFINYVIHWLKQKAGQGPEWIGYMNPYNDVPKNNAKFRGKARLTSDRSSTTAYMELNSLTSEDSAVYYCARGGFFGPLSYWGQGTLVTVSA VL: DVLMTQTPLSLSVSLGDQASISCRSSQNIVYSNGDTYFEWYLQKPGQSPKLLIYKVSQRFSGVPDRFSGSGSGTDFTLKISRVETEDLGVYYCFQGAHDPPAFGGGTKLELKR |  |  |  | binds |
